The results in this text go back to the nanobody polyreactivity screen of Harvey et al. (2022).

A short description of the series: yeast display, Sf9 membrane polyspecificity reagent, FACS + sequencing; frameworks hold sequencing errors. The method in brief:
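In a synthetic yeast display library (Saccharomyces cerevisiae BJ5465), nanobody expression was induced with galactose for 36–48 hours. FACS gates were set low and high (top ~1%) using anti-HA fluorescence for expression and streptavidin fluorescence for binding of the Sf9 membrane reagent. Each polyreactivity label is drawn from the gate of origin.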
On to “QVQLVESGGGLVQAGGSLRLSCAASGRTFTGYAMGWYRQAPGKERELVASISRRGGSTYYADSVKGRFTISRDNAKNTVYLQMNSLKPEDTAVYSCAADSVRHTYSWWYAVDYWGQGTQVTVSS”, for which the “polyreactivity (PSR sort gate)” value is “high polyreactivity”.

Consider “QVQLVESGGGLVQAGGSLRLSCAASGRTFTGYTKGWYRQAPGKEREFVAAISSNGGRTYYADSVKGRFTISRDNAKNTVYLQMNSLKPEDTAVYYCAARYTFWGQGTQVTVSS”, for which the “polyreactivity (PSR sort gate)” value was “high polyreactivity”.

For the sequence “QVQLVESGGGLVQAGGSLRLSCAASGRTFTIYAMGWYRQAPGKERDLVAAITRSGGGTYYADSVKGRFTISRDNAKNTVYLQMNRLKPEDTAVYYCARDKHWFYGVIGPEDYWGQGTQVTVSS”, the “polyreactivity (PSR sort gate)” value is reported as “low polyreactivity”.

As for “QVQLVESGGGLVQAGGSLRLSCAASGRTFTIYAMGWYRQAPGKERELVAGITSAGRTYYADSVKGRFTISRDNAKNTVYSQMNSLNPEDTAVDYCAASGSYAIVWGDQYYGYYYWGQGTQVTVSS”, the “polyreactivity (PSR sort gate)” value was “high polyreactivity”.

As for “QVQLVESGGGLVQAGGSLRLSCAASGRTFTNNAMGWYRQAPGKERELVAAIRWSGGYTYYADSVKGRFTISRDNAKNTVYLQMNSQKPEDTAVYYCAKGYGYVEAVIVQYDYWGQGSQVTVSS”, the “polyreactivity (PSR sort gate)” value was “low polyreactivity”.

As for “QVQLVESGGGLVQAGGSLRLSCAASGRTFTPYAKGWYRQAPGKERELVATISSGTSTNYADSVKGRFTISLDNAKYTVYLQMNSLKPEDTAVYYCAADGYTYKFDYWGQGSQVTVSS”, the “polyreactivity (PSR sort gate)” value is listed as “low polyreactivity”.

For the sequence “QVQLVESGGGLVQAGGSLRLSCAASGRTFTPYTRGWYRQAPGKEREFVPAIRTGGNTYYADSVKGRFTISRDNAKNTVYLQMNSLKPEDTAVYYCAARDRIGYRLYYWGQGTQVTVSS”, the “polyreactivity (PSR sort gate)” value is recorded as “high polyreactivity”.

Consider “QVQLVESGGGLVQAGGSLRLSCAASGRTFTQNAMGWYRQAPGKERELVAAISSGGRTYYADSVKGRFTISRDNAKNTVYLQMNSLKPEDTAVYYCNAGGGRRMYWGLGTQVTVSS”, for which the “polyreactivity (PSR sort gate)” value is recorded as “high polyreactivity”.

In the case of “QVQLVESGGGLVQAGGSLRLSCAASGRTFTQYAMGWYRQAPGKERELVARISYSGGTTYYADSVKGRFTISRDNAKNTVYLQMNSLKPEDNAVYYCAKARVVAGYDYWGQGTQVTVSS”, the “polyreactivity (PSR sort gate)” value was “high polyreactivity”.

For “QVQLVESGGGLVQAGGSLRLSCAASGRTFTRNVMGWYRQAPGKERELVARISYSGGSTSYADSVKGRFTISRDNAKNTVYLQMNSLKPEDTAVYYCAKYSGKYVSGRYRYYSWGQGTQVTVSS”, the “polyreactivity (PSR sort gate)” value is given as “high polyreactivity”.

For “QVQLVESGGGLVQAGGSLRLSCAASGRTFTRYAMGWYRQAPGKERELVAAISWSGGSTYYADSVKGRFTISRDNAKNTVYLQMNSLKPEDTAVYYCNAYYYYPEFNYWGLGTQVTVSS”, the “polyreactivity (PSR sort gate)” value is “high polyreactivity”.

On to “QVQLVESGGGLVQAGGSLRLSCAASGRTFTRYAMGWYRQAPGKERELVAAITSSGRTYYADSVKGRFTISRDNAKNTVYLQMNSLKPEDTAVYYCAKYRANALNYANRGAGDYWGQGTQVTVSS”, for which the “polyreactivity (PSR sort gate)” value is recorded as “high polyreactivity”.

Take “QVQLVESGGGLVQAGGSLRLSCAASGRTFTRYAMGWYRQAPGKERELVASISSRGTRTYYADSVKGRFTISRDNAKNTVYLQMNSLKPDDTAVYYCNVGFYPYYFLTYQGGDYWGQGTQVTVSS”: the “polyreactivity (PSR sort gate)” value is on record as “high polyreactivity”.

Consider “QVQLVESGGGLVQAGGSLRLSCAASGRTFTSNAMGWYRPAPGKERELVAAITQSGGSTYYADSVKGRFTISRDNAKNTVYLQMNSLKPEDTAVYYCNAETTGRTEYNYWGQGTQVTVSS”, for which the “polyreactivity (PSR sort gate)” value is given as “low polyreactivity”.

As for “QVQLVESGGGLVQAGGSLRLSCAASGRTFTSNAMGWYRQAPGKERELVAAITRGGSTYYADSVKGRFTISRDNAKNTVYLQMNSLKPEDTAVYYCNAGIYFRRKRYDYWGQGTQVTVSS”, the “polyreactivity (PSR sort gate)” value is reported as “high polyreactivity”.

Turning to “QVQLVESGGGLVQAGGSLRLSCAASGRTFTVNAMGWYRQAPGKERELVARISYGGARTYYADSVKGRFTISRDNAKNTVYLQMNSLKPEDTAVYYSAAPGPRKYEYDYWGQGTQVTVSS”, the “polyreactivity (PSR sort gate)” value is reported as “high polyreactivity”.

Regarding “QVQLVESGGGLVQAGGSLRLSCAASGRTFTVYAMGWYRQAPGKERELVAAIIYSGGRTYYADSVKGRFTISRDNAKNTVYLQMNSLKPEDTAVYYCAAYVYQSCPRFSRYGGYDYWGQGTQVTVSS”, the “polyreactivity (PSR sort gate)” value is given as “low polyreactivity”.

As for “QVQLVESGGGLVQAGGSLRLSCAASGRTFTVYAMGWYRQAPGKERELVAAIRRRGGSTYYADSVKGRFTISRDNAKNTVYLQMNSLKPEDTAVYYCAADNWYKKQKRPSAYDYWGQGTQVTVSS”, the “polyreactivity (PSR sort gate)” value is recorded as “high polyreactivity”.

In the case of “QVQLVESGGGLVQAGGSLRLSCAASGRTFTVYAMGWYRQAPGKERELVAAIRRTGSTYYADSVKGRFTISRDNAKNTVYLQMNSLKPEDTAVYYCNAEGSSVLTGYWGYPPYWDTYDYWGQGTQVTVSS”, the “polyreactivity (PSR sort gate)” value was “low polyreactivity”.

As for “QVQLVESGGGLVQAGGSLRLSCAASGRTFTYYAIGWYRQAPGKERELVADINRSGGDTYYADSVKGRFTISRDNAKNTVYLQMNSLKPEDTAVYYSAADDWGAQHRYDYWGQGTQVTVSS”, the “polyreactivity (PSR sort gate)” value was “low polyreactivity”.

As for “QVQLVESGGGLVQAGGSLRLSCAASGRTFTYYAMGWSRQAPGKERELVASITSGGSTYADSVKGRFTISRDNAKNTVYLQMNSLKPEDTAVYYCAARAWGYRYKYYWGQGTQVTVSS”, the “polyreactivity (PSR sort gate)” value is on record as “high polyreactivity”.

Regarding “QVQLVESGGGLVQAGGSLRLSCAASGRTFVFNAMGWYRPAPGKERELVAAITKNGGSTYYADSVKGRFTISRDNAKNTVYLQMNSLKPEDTAVYYCAAQWWRLYWEYYYWGQGTQVTVSS”, the “polyreactivity (PSR sort gate)” value is “low polyreactivity”.

On to “QVQLVESGGGLVQAGGSLRLSCAASGRTFVFNAMGWYRQAPGKERELVAAISARGGRTYYADSVKGRFTISRDNAKNTVYLQMNSLKPEDTAVYYCATVPYPNRKVGVDYWGQGTQVTVSS”, for which the “polyreactivity (PSR sort gate)” value is given as “high polyreactivity”.

Take “QVQLVESGGGLVQAGGSLRLSCAASGRTFVFNAMGWYRQAPGKERELVAAITKNGGSTYYADSVKGRFTISRDNAKNTVYLQMNSLKPEDTAVYYCAVRRGYPFYYWGQGTQVTVSS”: the “polyreactivity (PSR sort gate)” value is “low polyreactivity”.

On to “QVQLVESGGGLVQAGGSLRLSCAASGRTFVFYAMGWYIQAPGKERELVASISDGDRTNYADSVKGRFTISRDNAKNTVYLQMNSLKPEDTAVYYCAADREFWWEVVYTYEYYYWGQGTQVTVSS”, for which the “polyreactivity (PSR sort gate)” value was “low polyreactivity”.

“QVQLVESGGGLVQAGGSLRLSCAASGRTFVFYAMGWYRQAPGKERELVAAITSSGRTKYADSVKGRFTISRDNAKNTVYLQMNSLKPEDTAVYYCAVLRWPGLDYYWGQGTQVTVSS”: the “polyreactivity (PSR sort gate)” value is given as “high polyreactivity”.

Regarding “QVQLVESGGGLVQAGGSLRLSCAASGRTFVGNAMGWYRQAPGKEREFVAAITSRTGSTYYADSVKGRFTISRDNAKYTVYLQMNSLKPEDTAVYYCATPYYQNVYSRKAYNYWGQGTQVTVSS”, the “polyreactivity (PSR sort gate)” value is on record as “high polyreactivity”.

On to “QVQLVESGGGLVQAGGSLRLSCAASGRTFVGNAMGWYRQAPGKERELVADITWSGDITYYADSVKGRFTISRDNAKNTVYLQKNSLKPEDTAVYYCAADYHRRRTDYDYWGQGTQVTVSS”, for which the “polyreactivity (PSR sort gate)” value was “low polyreactivity”.

On to “QVQLVESGGGLVQAGGSLRLSCAASGRTFVGYAMGWYRQAPGKERELVAAISGSGVRTYYADSVKGRFTISRDNAKNTVYLQMNSLKPEDTAVYYCAVRQGWYNFRYDYWGQGTQVTVSS”, for which the “polyreactivity (PSR sort gate)” value was “high polyreactivity”.

“QVQLVESGGGLVQAGGSLRLSCAASGRTFVHNAMGWYRQAPGKERELVAVITSGARTTYADSVKGRFTISRDNAKNTVYLQMNSLKPEDTAVYYCAAGTFSVIFSYKYRHYYYWGQGTQVTVSS”: the “polyreactivity (PSR sort gate)” value is on record as “low polyreactivity”.

Regarding “QVQLVESGGGLVQAGGSLRLSCAASGRTFVINSMGWYRQAPGKERELVAAITWGGGSTYYADSVKGRFTISRDNAKNTVYLQMNSLKPEDTAVYYCATSYSVQYGGSGYYWGQGTQVTVSS”, the “polyreactivity (PSR sort gate)” value is listed as “low polyreactivity”.

Consider “QVQLVESGGGLVQAGGSLRLSCAASGRTFVKYAMGWYRQAPGKERELVAAISSRGSSTYYADSVKGRFTISRDNAKNTVYLQMNSLKPEETAVYYCNAVYYYNPGYDYWGQGTQVTVSS”, for which the “polyreactivity (PSR sort gate)” value is “high polyreactivity”.

On to “QVQLVESGGGLVQAGGSLRLSCAASGRTFVNNAMGWYRQAPGKERELVAAISQSGSRTYYADSVKRRFTISRDNAKNSVYLQMNSLNTEDTAVYDCAARGARSSTSDDWGQGTQVTVSS”, for which the “polyreactivity (PSR sort gate)” value is listed as “high polyreactivity”.

“QVQLVESGGGLVQAGGSLRLSCAASGRTFVNYTMGWYRQAPGKERELVAAIRYRDGSTYYADSVKGRFTISRDNAKNTVYLQMNSLKPEDTAVYYCDTRITQVGDYIYDYWGQGTQGTVSS”: the “polyreactivity (PSR sort gate)” value is “low polyreactivity”.

Take “QVQLVESGGGLVQAGGSLRLSCAASGRTFVPYAMGWYRQAPGKEREFVAAISSRVGSTYYADSVKGRFTISRDNAKNTVYLQMNSLKPEDTAVYYCNAPFKPAGFYSAWKYDYWGQGTQVTVSS”: the “polyreactivity (PSR sort gate)” value was “low polyreactivity”.

As for “QVQLVESGGGLVQAGGSLRLSCAASGRTFVPYAMGWYRQAPGKERELVAAISSSGGSTYYADSVKGRFTISRDNAKNTVYLQMNSLKPDDTAVYYCAAKSRKGGEYWGQGTQVTVSS”, the “polyreactivity (PSR sort gate)” value is recorded as “high polyreactivity”.

As for “QVQLVESGGGLVQAGGSLRLSCAASGRTFVPYAMGWYRQAPGKERELVAAISWSSVSTYYADSVKGRFTISRDNAKNTVYLQMNSLKPEDTAVYYCAAEYYTRVAEYYYWGQGTQVTVSS”, the “polyreactivity (PSR sort gate)” value is recorded as “high polyreactivity”.

Take “QVQLVESGGGLVQAGGSLRLSCAASGRTFVQYVMGWYRQAPGKERELVARISSGGSTFYADSVKGRFTISRDNAKNTVYLQMNSLKPEDTAVYYCAAQWTRYRRRPMDYWGQGTQVTVSS”: the “polyreactivity (PSR sort gate)” value is “high polyreactivity”.

For “QVQLVESGGGLVQAGGSLRLSCAASGRTFVRYAMGWYRQAPGKERELVAAISRTGGTTYYADSVKGRFTISRDNAKNTVYLQMNSLKPEDTAVYYCNADPFYKYGYWGQGTQVTVSS”, the “polyreactivity (PSR sort gate)” value is recorded as “high polyreactivity”.

With “QVQLVESGGGLVQAGGSLRLSCAASGRTFVRYAMGWYRQAPGKERELVAAISWSGGSTYYADSVKGRFTISRDNAKNTVYLQMNSLKPEDTAVYYCAADDETPSSHEEDYWGQGTQVTVSS”, the “polyreactivity (PSR sort gate)” value is reported as “high polyreactivity”.

For “QVQLVESGGGLVQAGGSLRLSCAASGRTFVRYAMGWYRQAPGKERELVAAITRRGGSTYYADSVKGRFTISRDNAKNTVYLQMNSLKPEDTAVYYCNKAVGVTGFDYWGQGTQVTVSS”, the “polyreactivity (PSR sort gate)” value was “high polyreactivity”.
